Like-named read-outs stand apart in the source and are kept apart here.
Assays:
[1] = molecular target: β1 adrenergic receptor (rat) (UniProt P18090); assay: cell-based or functional assay
[2] = molecular target: β1 adrenergic receptor (rat) (UniProt P18090); assay: cell-based or functional assay; remark: listed apart in the source

Chain of β1 adrenergic receptor (rat) (P18090 whole entry): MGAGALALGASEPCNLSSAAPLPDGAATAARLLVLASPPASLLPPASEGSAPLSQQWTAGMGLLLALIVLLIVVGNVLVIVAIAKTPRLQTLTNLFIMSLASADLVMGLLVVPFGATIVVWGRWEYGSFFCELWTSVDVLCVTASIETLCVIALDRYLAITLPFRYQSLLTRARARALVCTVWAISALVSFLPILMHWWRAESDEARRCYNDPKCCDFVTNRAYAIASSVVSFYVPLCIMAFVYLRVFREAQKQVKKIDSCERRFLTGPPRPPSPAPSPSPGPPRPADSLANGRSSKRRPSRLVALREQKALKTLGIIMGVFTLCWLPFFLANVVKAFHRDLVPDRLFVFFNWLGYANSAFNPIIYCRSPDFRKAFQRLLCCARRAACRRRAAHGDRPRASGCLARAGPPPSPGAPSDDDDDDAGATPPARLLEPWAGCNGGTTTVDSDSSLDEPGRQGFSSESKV

For Gαi (C351G) (from UniProt B2RSH2 2-354), which Change Level in Current Density [pA/pF] (ISO 30 nM against no ISO) [1] is on record?
The Change Level in Current Density [pA/pF] (ISO 30 nM against no ISO) was -9.14 pA/pF.

And the Change Level in Current Density [pA/pF] (ISO 30 nM against no ISO) [2]?
The Change Level in Current Density [pA/pF] (ISO 30 nM against no ISO) was -16.4 pA/pF.

What about the Current Change Level [nA] [2] of the same substance?
Its Current Change Level [nA] is -0.2 nA.

What about the membrane current value immediately after the pulse, ISO not supplied (whole-cell patch clamp) [2] of the same substance?
The membrane current value immediately after the pulse, ISO not supplied (whole-cell patch clamp) was -0.2 nA.

What about the membrane current value, ISO supplied (whole-cell patch clamp) [2] of the same substance?
Its membrane current value, ISO supplied (whole-cell patch clamp) is 0.5 nA.
